# T1: recombinant human B7-H3 His-tag (R&D 1949-B3-050) (Homo sapiens, UniProt Q5ZPR3-2 29-245)
# T1 sequence: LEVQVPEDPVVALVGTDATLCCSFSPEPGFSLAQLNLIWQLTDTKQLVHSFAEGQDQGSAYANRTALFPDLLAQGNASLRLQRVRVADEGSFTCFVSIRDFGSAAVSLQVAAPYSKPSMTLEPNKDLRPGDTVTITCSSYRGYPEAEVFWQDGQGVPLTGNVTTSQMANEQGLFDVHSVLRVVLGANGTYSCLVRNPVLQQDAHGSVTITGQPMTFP
# B1: VRF-HS_B7H3-02 (ssDNA)
# DNA: TAGGGAAGAGAAGGACATATGATCGCCCCTCTTTTCGATTTCAAGCTCCTAACCCACACCTCTTTGACTAGTACATGACCACTT
# B2: VRF-HS_B7H3-05 (ssDNA)
# DNA: TAGGGAAGAGAAGGACATATGATTGAGAAGTCACGCCACTTACCTGCGCTCAAAACCTCAGAATTGACTAGTACATGACCACTT
# B3: VRF-HS_B7H3-04 (ssDNA)
# DNA: TAGGGAAGAGAAGGACATATGATTGCCCCTGACACTTACACGCCACTATCAAGGCACACGCCATTGACTAGTACATGACCACTT
# B4: VRF-HS_B7H3-01 (ssDNA)
# DNA: TAGGGAAGAGAAGGACATATGATACAGCACGGTATGACGAGTCCATTGTGTGTGCAGCTCGCTAATTGACTAGTACATGACCACTT
# B5: VRF-HS_B7H3-03 (ssDNA)
# DNA: TAGGGAAGAGAAGGACATATGATATAAGTGACACATCAATCTCATGCGGATGAACCAGTGCGTTTGACTAGTACATGACCACTT
# Target: T1, recombinant human B7-H3 His-tag (R&D …)
# Assay: dot blot; FITC aptamer, 10 ng protein on membrane; ABB: AWB (composition not given) + 0.1 mg/ml yeast tRNA, 0.1 mg/ml salmon sperm DNA, 5% FBS, 1 mg/ml BSA; 60 min; 0-500 nM aptamer; flow binding assay on ice, dot-blot temperature and pH not stated
# Details: protein: commercial; tags: C-terminal His; label: FITC or biotin
row,Binder,Kd [nM]
1,B1,24.6 ± 3.69
2,B2,32.7 ± 4.56
3,B3,31.5 ± 4.02
4,B4,19.2 ± 4.4
5,B5,22.7 ± 3.71
